From paper PMC2828913

Target: Collagen matrix (Purecol) (UniProt P02453)
Assay: retention in a polymerised collagen gel

Sequence of UniProt P02453 (P02453 162-1217, chain 1 of 2): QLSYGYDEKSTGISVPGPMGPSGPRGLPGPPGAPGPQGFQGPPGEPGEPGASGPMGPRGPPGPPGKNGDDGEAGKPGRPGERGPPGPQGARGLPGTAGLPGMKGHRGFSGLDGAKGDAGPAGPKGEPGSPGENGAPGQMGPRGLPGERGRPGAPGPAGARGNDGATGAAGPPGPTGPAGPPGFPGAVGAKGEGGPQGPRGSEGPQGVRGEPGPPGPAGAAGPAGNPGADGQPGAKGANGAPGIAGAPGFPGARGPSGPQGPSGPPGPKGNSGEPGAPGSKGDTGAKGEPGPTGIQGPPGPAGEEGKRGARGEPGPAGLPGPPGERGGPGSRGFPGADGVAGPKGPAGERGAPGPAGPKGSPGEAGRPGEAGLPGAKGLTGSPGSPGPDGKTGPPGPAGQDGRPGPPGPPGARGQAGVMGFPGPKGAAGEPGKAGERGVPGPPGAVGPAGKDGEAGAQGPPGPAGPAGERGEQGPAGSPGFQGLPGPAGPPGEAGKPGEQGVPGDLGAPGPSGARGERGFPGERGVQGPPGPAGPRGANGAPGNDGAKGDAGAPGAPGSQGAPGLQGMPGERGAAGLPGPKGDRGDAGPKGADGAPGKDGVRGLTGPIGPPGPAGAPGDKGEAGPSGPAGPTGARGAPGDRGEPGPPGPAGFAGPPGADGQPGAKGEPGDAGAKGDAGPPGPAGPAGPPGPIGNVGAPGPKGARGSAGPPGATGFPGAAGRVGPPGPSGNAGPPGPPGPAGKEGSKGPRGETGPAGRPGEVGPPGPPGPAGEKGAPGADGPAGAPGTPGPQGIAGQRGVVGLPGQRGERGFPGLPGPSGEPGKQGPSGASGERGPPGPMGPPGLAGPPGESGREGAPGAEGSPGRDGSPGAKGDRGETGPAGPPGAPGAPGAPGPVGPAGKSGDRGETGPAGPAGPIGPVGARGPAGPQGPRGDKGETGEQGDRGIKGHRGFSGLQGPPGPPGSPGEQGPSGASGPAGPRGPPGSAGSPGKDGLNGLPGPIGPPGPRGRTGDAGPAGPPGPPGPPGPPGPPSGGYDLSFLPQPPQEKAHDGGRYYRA
Sequence of UniProt P02453 (P02465 80-1117, chain 2 of 2, further chain): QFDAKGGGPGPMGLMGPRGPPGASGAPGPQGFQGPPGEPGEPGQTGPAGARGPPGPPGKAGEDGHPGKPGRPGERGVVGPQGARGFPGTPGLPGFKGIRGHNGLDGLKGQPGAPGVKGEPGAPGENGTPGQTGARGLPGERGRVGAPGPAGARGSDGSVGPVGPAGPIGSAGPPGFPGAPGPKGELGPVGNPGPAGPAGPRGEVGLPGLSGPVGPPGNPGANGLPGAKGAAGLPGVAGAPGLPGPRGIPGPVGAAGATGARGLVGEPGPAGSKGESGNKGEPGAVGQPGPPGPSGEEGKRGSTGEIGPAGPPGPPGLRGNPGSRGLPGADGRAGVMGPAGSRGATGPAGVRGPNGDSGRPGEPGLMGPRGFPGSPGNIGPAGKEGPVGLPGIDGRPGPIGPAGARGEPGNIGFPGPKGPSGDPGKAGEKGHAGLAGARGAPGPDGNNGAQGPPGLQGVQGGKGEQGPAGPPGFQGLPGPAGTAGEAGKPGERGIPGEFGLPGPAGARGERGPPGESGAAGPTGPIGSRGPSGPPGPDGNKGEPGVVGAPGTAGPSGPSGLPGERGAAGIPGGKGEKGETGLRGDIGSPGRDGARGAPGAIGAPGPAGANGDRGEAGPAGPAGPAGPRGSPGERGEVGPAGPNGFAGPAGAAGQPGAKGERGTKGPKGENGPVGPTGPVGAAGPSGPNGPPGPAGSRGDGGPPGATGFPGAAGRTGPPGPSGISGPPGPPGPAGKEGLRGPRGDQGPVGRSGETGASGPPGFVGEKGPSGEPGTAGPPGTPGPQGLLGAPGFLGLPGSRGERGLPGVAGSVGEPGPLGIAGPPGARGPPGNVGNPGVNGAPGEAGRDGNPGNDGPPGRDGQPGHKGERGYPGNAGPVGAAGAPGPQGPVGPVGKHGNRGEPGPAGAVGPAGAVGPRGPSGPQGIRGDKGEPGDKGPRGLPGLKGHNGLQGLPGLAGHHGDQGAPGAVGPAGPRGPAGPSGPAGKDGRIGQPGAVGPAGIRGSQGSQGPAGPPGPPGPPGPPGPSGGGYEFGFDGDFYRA

Human VEGF165 (ligand)
percent retained in the collagen gel after washes: > 80%
